Target: T1, human NKp46 (isoform a), expressed on cells (human, UniProt O76036 22-304)
T1 construct: also called huNKp46; Raji-huNKp46 Low
Experiment: IHC on FFPE cell pellets (Raji transfectants, SNK6) and human spleens, antibody at 5 and 10 pg/ml as printed

T1 sequence (O76036 22-304 Q82K limits assumed): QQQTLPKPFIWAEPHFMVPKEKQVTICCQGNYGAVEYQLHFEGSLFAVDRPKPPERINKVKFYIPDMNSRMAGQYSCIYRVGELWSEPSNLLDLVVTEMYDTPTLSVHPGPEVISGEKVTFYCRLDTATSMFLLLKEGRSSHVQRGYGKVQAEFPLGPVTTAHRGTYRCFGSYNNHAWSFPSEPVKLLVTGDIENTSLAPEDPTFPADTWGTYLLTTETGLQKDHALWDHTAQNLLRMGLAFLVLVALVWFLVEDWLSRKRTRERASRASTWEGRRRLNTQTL

B1: 8E5B antibody (antibody, mouse IgG1, V domains shown)
VH: EIQLQQSGAELVKPGASVKLSCTASGFNIKDTYFHWVKQRPEQGLEWIGRIDPANGNTKYDPKFHDKATIIADISSNTAYLQFSSLTSEDTAVYYCAANRYGYWGQGTTLTVSS
VL: DIVMTQAAPSIPVTPGESVSISCRSSKSLLYINGNTHLFWFLQRPGQSPQLLIYRMSNLASGVPDRFSGSGSGTAFTLRISRVEAEDVGVYYCMQHLEYPFTFGSGTKLEIK
notes: Mouse monoclonal antibody; also called 8E5-B clone; monoclonal antibody 8E5B
  binding result: binds

Reference: patent publication US20180369373A1 (INNATE PHARMA, published 2018)
